Like-named read-outs stand apart in the source and are kept apart here.
Columns and labels:
human Y4 receptor [1] = molecular target: T1, human Y4 receptor (human, UniProt P50391 1-375); assay: 125I-PP displacement
human Y4 receptor [2] = molecular target: T1, human Y4 receptor; assay: 125I-PP displacement; remark: listed apart in the source

T1 sequence (P50391 whole entry): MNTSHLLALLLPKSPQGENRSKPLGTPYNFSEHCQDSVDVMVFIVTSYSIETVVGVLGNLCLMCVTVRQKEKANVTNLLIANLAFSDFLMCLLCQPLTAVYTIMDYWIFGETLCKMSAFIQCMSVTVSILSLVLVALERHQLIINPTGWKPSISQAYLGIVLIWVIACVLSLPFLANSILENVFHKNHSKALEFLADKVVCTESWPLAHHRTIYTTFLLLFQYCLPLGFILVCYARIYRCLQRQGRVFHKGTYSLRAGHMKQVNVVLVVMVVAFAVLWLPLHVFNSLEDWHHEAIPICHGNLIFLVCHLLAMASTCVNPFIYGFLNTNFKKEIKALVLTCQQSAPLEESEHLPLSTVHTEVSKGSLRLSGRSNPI

Binder	IC50 (human Y4 receptor [1])	IC50 (human Y4 receptor [2])
PAPLEPTYPGDDATPQQMARYAAELRRYINFLTRPRY [7259]	–	0.075 nM
PAPLEPTYPGDDATPQQMAKYAAELRRYINILTRPRY [7270]	–	0.171 nM
PAPLEPSYPGDDATPQQMAHYYAELRRYINKLTRPRY [4057774]	0.227 nM	–
PAPLEPTYPGDDATPQQMARYAAALRRYINILTRPRY [7269]	–	0.187 nM
PAPLEPTYPGDDATPQQMARYAAELRRYINILTRPRY [7271]	–	0.22 nM
AAPLEPTYPGDDATPQQMARYAAELRRYINFLTRPRY [7274]	–	0.107 nM
AAPLEPHYPGDNATPEQMAKYAAELRRYINKLTRPRY [4057765]	0.075 nM	–
AAPLEPSYPGDNATPEQMAHYYSELRRYINKLTRPRY [4057777]	0.088 nM	–
PAPLEPVYPGDNATPEELARYAAELRRYINKLTRPRY [4057769]	0.117 nM	–
PAPLEPVYPGDNASPEQMARYAAELRRYINKLTRPRY [4057770]	0.081 nM	–
APLEPHYPGDNATPEQMAKYAAELRRYINKLTRPRY [4057764]	0.094 nM	–
APLEPVYPGDNATPEQMAEYAADLRRYINMLTRPRY [4055524]	–	0.3 nM
APLEPHYPGDNATPEQMAKYAAALRRYINKLTRPRY [4057754]	0.156 nM	–
APLEPVYPGDNATPEQMAHYAADLRRYINMLTRPRY [4055525]	–	0.11 nM
APLEPVYPGDDATPEQMAQYAAELRRYINMLTRPRY [4055195]	–	0.86 nM
APLEPHYPGDNATPEQMAKYAADLRRYINKLTRPRF [4057745]	0.086 nM	–
APLEPHYPGDNATPEQLAKYAADLRRYINKLTRPRY [4057751]	0.065 nM	–
APLEPVYPGDNATPEQLAQYAADLRKYINLLTRPRY [4055549]	–	0.2 nM
APLEPVYPGDDATPEQMAEYAADLRRYINMLTRPRY [4055406]	–	0.17 nM
KPLEPVYPGDNATPEQMAQYAADLRRYINMLTRPRY [4055292]	–	0.4 nM

Binder	IC50 (human Y4 receptor [1])	IC50 (human Y4 receptor [2])
APLEPVYPGDNATPEQMAQYAADLNLRYINMLTRPRY [4054990]	–	0.67 nM
PAPLEPTYPGDDATPQQMAKYAAALRRYINILTRPRY [7268]	–	0.127 nM
AAPLEPHYPGDNATPEQMAKYAAALRRYINKLTRPRY [4057755]	0.145 nM	–
PAPLEPTYPGDNATPEQMAKYAAELRRYINFLTRPRY [7253]	–	0.095 nM
PAPLEPHYPGDNATPEQMAKYAADLRRYINKLTRPRF [4057747]	0.066 nM	–
PAPLEPTYPGDNATPEQMARYAAALRRYINMLTRPRY [7249]	–	0.089 nM
PAPLEPVYPGDNATPEQIARYAAALRRYINKLTRPRY [7244]	–	0.106 nM
PAPLEPHYPGDNATPEQMAKYYSELRRYINKLTRPRY [4057763]	0.174 nM	–
AAPLEPHYPGDNATPEQLAKYAADLRRYINKLTRPRY [4057752]	0.071 nM	–
PAPLEPTYPGDNATPEQMAKYAAELRRYINMLTRPRY [7251]	–	0.096 nM
AAPLEPHYPGDNATPEQMAKYAADLRRYINKLTRPRF [4057746]	0.072 nM	–
PAPLEPHYPGDNATPEQLAKYAADLRRYINKLTRPRY [4057753]	0.07 nM	–
PAPLEPKYPGDNATPEQMARYAAALRRYINMLTRPRY [7248]	–	0.131 nM
PAPLEPHYPGDNATPEQMAKYAAALRRYINKLTRPRY [4057756]	0.124 nM	–
AAPLEPHYPGDNATPEQMAKYYSELRRYINKLTRPRY [4057762]	0.167 nM	–
PAPLEPVYPGDNATPEQMARYAAALRRYINKLTRPRY [7243]	–	0.058 nM
AAPLEPHYPGDNATPEQMAKYYSALRRYINKLTRPRY [4057758]	0.19 nM	–
APLEPVYPGDDATPQQMAQYYASLRHYLNLVTRPRY [4055247]	–	0.3 nM
APLEPVYPGDNATPEQMAQYYASLRHYLNLVTRPRY [4055245]	–	0.5 nM

The remaining lines, values ahead:

IC50 (human Y4 receptor [1])	IC50 (human Y4 receptor [2])	Binder
0.064 nM	–	GAPLEPHYPGDDATPQQMARYAAELRRYINKLTRPRY [4057899]
0.137 nM	–	YAPLEPHYPGDDATPQQMARYAAELRRYINKLTRPRY [4058054]
0.111 nM	–	PAPLEPHYPGDDATPQQMARYAAELRRYINLLTRPRY [4058057]
0.064 nM	–	HAPLEPHYPGDNATPEQMARYAAELRRYINKLTRPRY [4057902]
0.07 nM	–	PAPLEPHYPGDDATPQQMARYAAELRRYINKLTRPRY [4057897]
0.042 nM	–	YAPLEPEYPGDDATPQQMARYAAELRRYINKLTRPRY [4058053]
0.155 nM	–	AAPLEPHYPGDDATPQQMAHYYSELRRYINKLTRPRY [4057788]
0.132 nM	–	PAPLEPSYPGDNATPEQLAHYYSELRRYINKLTRPRY [4057781]
0.134 nM	–	PAPLEPTYPGDNATPEQLAHYYSELRRYINKLTRPRY [4057785]
0.164 nM	–	PAPLEPHYPGDDATPQQLAHYYSELRRYINKLTRPRY [4057789]
0.071 nM	–	AAPLEPSYPGDNATPEQLAHYYSELRRYINKLTRPRY [4057779]
0.154 nM	–	PAPLEPTYPGDNATPEQMAHYYSELRRYINKLTRPRY [4057783]
0.078 nM	–	AAPLEPTYPGDNATPEQMAHYYSELRRYINKLTRPRY [4057782]
0.102 nM	–	AAPLEPTYPGDNATPEQLAHYYSELRRYINKLTRPRY [4057784]
0.1 nM	–	APLEPHYPGDDATPQQMARYAAELRRYINLLTRPRY [4058056]
0.09 nM	–	PLEPHYPGDNATPEQMARYAAELRRYINKLTRPRY [4057900]
0.144 nM	–	PLEPHYPGDNATPEQLAKYAADLRRYINKLTRPRY [4057893]
0.063 nM	–	PLEPHYPGDDATPQQMARYAAELRRYINKLTRPRY [4057898]
0.134 nM	–	HAPLEPVYPGDNATPEQMAKYAADLRRYINKLTRPRY [4057879]
0.146 nM	–	HAPLEPHYPGDNATPEQMAKYAADLRRYINKLTRPRY [4057891]
0.085 nM	–	PAPLEPSYPGDNATPEQMAKYAAALRRYINLLTRPRY [4058052]

— patent US20100279930A1 (published 2010)
